This note sets out measurements from the MegaScale stability set (Tsuboyama et al. 2023).

B1: EHEE_rd4_0726 (parent)
chain: DIEITTNGEEDAKRVIKELQKRNLEYHIEVHGNQWVIKVR

The variants in the data set derive from B1. Kind of data set: folding stability dG (cDNA display proteolysis); higher = more stable. As to conditions: PBS, room temperature.
With DIEITTNGEERAKRVIKELQKRNLEYHIEVHGNQWVIKVR [D11R], the “folding stability dG” value amounted to 1.99 kcal/mol.
Then DIEITTNGEEEAKRVIKELQKRNLEYHIEVHGNQWVIKVR [D11E], with 2.95 kcal/mol; and DIEITTNGEEDAKRVIKELQKRNLEYHIEVHGNQWVIKVY [R40Y], with 2.57 kcal/mol; and DIEITTNGEEDAKRVIKELQKRNLEYHIEVHGNQWVIKVA [R40A], with 2.12 kcal/mol.
As to DIEITTNGEEDAKRVIKELQKCNLEYHIEVHGNQWVIKVR [R22C], the “folding stability dG” value was determined as 2.62 kcal/mol.
Then DIEITTNGEEDAKRVIKELQKYNLEYHIEVHGNQWVIKVR [R22Y], with 2.62 kcal/mol; and DIEITTNGEEDAKRVIKELQKHNLEYHIEVHGNQWVIKVR [R22H], with 2.33 kcal/mol.
For the variant DIESTTNGEEDAKRVIKELQKRNLEYHIEVHGNQWVIKVR [I4S], the “folding stability dG” value was found to be 0.002 kcal/mol.
As to DIEITTNGEEDAKRVIKELQKRNLEYHIEVEGNQWVIKVR [H31E], the “folding stability dG” value was 1.68 kcal/mol.
Then DIEITTNGEEDAKRVIKELQKRNLEYHIEVVGNQWVIKVR [H31V], with 2.61 kcal/mol.
Turning to DIEITTNGEEDAKRVIKELQKRNLEYHIEVCGNQWVIKVR [H31C], the “folding stability dG” value amounted to 2.31 kcal/mol.
As for DIEITTNGEEDAKRVIKELQKRNLEYHIEVFGNQWVIKVR [H31F], the “folding stability dG” value was 2.36 kcal/mol.
Then DIEITTNGEEDAKRVIKELQKRNLEYHIEVLGNQWVIKVR [H31L], with 2.27 kcal/mol.
Then DIEITTNGEEDAKRVIKELQKRNLEYAIEVHGNQWVIKVR [H27A], with 2.34 kcal/mol.
Then DIEITTNGEEDAKRVIKELQKRNLEYCIEVHGNQWVIKVR [H27C], with 2.6 kcal/mol; and DIEITTNGEEDAKRVIKELQKRNLEYSIEVHGNQWVIKVR [H27S], with 3.05 kcal/mol.
Regarding DIEITTNGEEDAKRVIKELQKRNLEYVIEVHGNQWVIKVR [H27V], the “folding stability dG” value is 2.86 kcal/mol.
Then DIEITTNGEEDAKRVIKELQKRNLEYMIEVHGNQWVIKVR [H27M], with 2.54 kcal/mol; and DIEITTNGEEDAKRVIKELQKRNLEYHIYVHGNQWVIKVR [E29Y], with 2.26 kcal/mol.
Then DIEITTNGEEDAKRVIKELQKRNLEYHIIVHGNQWVIKVR [E29I], with 2.32 kcal/mol; and DIEITTNGEEDAKRVIKELQKRNLEYHIRVHGNQWVIKVR [E29R], with 1.77 kcal/mol.
Then DIEITTNGSEDAKRVIKELQKRNLEYHIEVHGNQWVIKVR [E9S], with 1.86 kcal/mol; and DIEITTNGAEDAKRVIKELQKRNLEYHIEVHGNQWVIKVR [E9A], with 2.26 kcal/mol; and DIEITTNGWEDAKRVIKELQKRNLEYHIEVHGNQWVIKVR [E9W], with 3.31 kcal/mol.
With DIEITTNGEEDAKRVIKELQKRNLEYHIEVHGNQWVINVR [K38N], the “folding stability dG” value stood at 1.29 kcal/mol.
As for DIEITTNGEEDAKRVIKELQKRNLEYHIEVHGNQWVIQVR [K38Q], the “folding stability dG” value stood at 1.62 kcal/mol.
Then DIEITTNGEEDAKRVIKELQKRNLEYHIEVHGNQWVICVR [K38C], with 2.33 kcal/mol.
Then DIEITTNGEEDAKRVIKELQKRNLEYHIEVHGNQWVIEVR [K38E], with 0.557 kcal/mol.
On to DIEITTNGEEDAKRVIFELQKRNLEYHIEVHGNQWVIKVR [K17F], for which the “folding stability dG” value came out at 2.5 kcal/mol.
Then DIEITTNGEEDAKRVITELQKRNLEYHIEVHGNQWVIKVR [K17T], with 2.15 kcal/mol.
Then DIEITTNGEEDAKRVIEELQKRNLEYHIEVHGNQWVIKVR [K17E], with 2.49 kcal/mol.
Then DIEITTNGEEDAKRVIKELQKRNLEYHIEVHGNWWVIKVR [Q34W], with 2.32 kcal/mol.
With DIEITTNGEEDAKRVRKELQKRNLEYHIEVHGNQWVIKVR [I16R], the “folding stability dG” value is 0.31 kcal/mol.
Then DIEITTNGEEDAKRIIKELQKRNLEYHIEVHGNQWVIKVR [V15I], with 2.91 kcal/mol.
Then DIEITTNGEEDAKRFIKELQKRNLEYHIEVHGNQWVIKVR [V15F], with 1.97 kcal/mol.
Turning to DINITTNGEEDAKRVIKELQKRNLEYHIEVHGNQWVIKVR [E3N], the “folding stability dG” value is 1.87 kcal/mol.
Then DIDITTNGEEDAKRVIKELQKRNLEYHIEVHGNQWVIKVR [E3D], with 1.78 kcal/mol; and DIQITTNGEEDAKRVIKELQKRNLEYHIEVHGNQWVIKVR [E3Q], with 2.37 kcal/mol.
Then DIEITTNGEEDAKRVIKELQKRNGEYHIEVHGNQWVIKVR [L24G], with 0.458 kcal/mol; and DIEITTNGEEDAKRVIKELQKRNKEYHIEVHGNQWVIKVR [L24K], with 1.67 kcal/mol; and DIEITTNGEEDAKRVIKELQKRNIEYHIEVHGNQWVIKVR [L24I], with 2.46 kcal/mol.
Then DIEITTNGEEDAKRVIKELQKRNLEVHIEVHGNQWVIKVR [Y26V], with 1.42 kcal/mol.
On to DIEITTNGEEDAKRVIKELQKRNLEWHIEVHGNQWVIKVR [Y26W], for which the “folding stability dG” value was 1.95 kcal/mol.
In the case of DIEITTNGEEDAKRVIKELQKRNLEMHIEVHGNQWVIKVR [Y26M], the “folding stability dG” value stood at 1.13 kcal/mol.
For DIEITTNGEEDAKRVIKELQKRNLEYHIEVHGNQWRIKVR [V36R], the “folding stability dG” value came to 1.7 kcal/mol.
Then DIEITTNGEEDAKRVIKELQKRNLEYHIEVHGNQWIIKVR [V36I], with 2.7 kcal/mol; and DIEITTNGEEDAKRVIKELAKRNLEYHIEVHGNQWVIKVR [Q20A], with 2.11 kcal/mol.
Then DIEITTNGEEDAKRVIKELMKRNLEYHIEVHGNQWVIKVR [Q20M], with 2.4 kcal/mol; and DIEITTNGEEDAKRVIKELRKRNLEYHIEVHGNQWVIKVR [Q20R], with 2.56 kcal/mol; and DIEITTNGEEDAKRVIKELHKRNLEYHIEVHGNQWVIKVR [Q20H], with 1.85 kcal/mol.
Then RIEITTNGEEDAKRVIKELQKRNLEYHIEVHGNQWVIKVR [D1R], with 2.24 kcal/mol.
With DIEITTNGEEDAKRVIKELQKRNLEYHIEGHGNQWVIKVR [V30G], the “folding stability dG” value stood at 0.63 kcal/mol.
Consider DIEITTNGEEDAKRVIKELQKRNLEYHIELHGNQWVIKVR [V30L], for which the “folding stability dG” value is 1.86 kcal/mol.
Then DIEITTNGEEDAKNVIKELQKRNLEYHIEVHGNQWVIKVR [R14N], with 1.9 kcal/mol.
Then DIEITTNGEEDAKDVIKELQKRNLEYHIEVHGNQWVIKVR [R14D], with 1.59 kcal/mol; and DIEITTNGEEDAKLVIKELQKRNLEYHIEVHGNQWVIKVR [R14L], with 2.3 kcal/mol; and DIEITTNGEEDAKGVIKELQKRNLEYHIEVHGNQWVIKVR [R14G], with 1.51 kcal/mol.
Take DIEITTNGEEDAKHVIKELQKRNLEYHIEVHGNQWVIKVR [R14H]: the “folding stability dG” value came out at 1.83 kcal/mol.
Then DIEITTNGEEDAKPVIKELQKRNLEYHIEVHGNQWVIKVR [R14P], with 1.04 kcal/mol.
Then DIEITTNGEEDAKRVIKELQKRILEYHIEVHGNQWVIKVR [N23I], with 0.939 kcal/mol; and DIEITTNGEEDAKRVIKELQKRRLEYHIEVHGNQWVIKVR [N23R], with 2.43 kcal/mol; and DIEITTNGEEDAKRVIKELQKRTLEYHIEVHGNQWVIKVR [N23T], with 1.2 kcal/mol.
Consider DIEITTNGEEDAKRVIKELQKRCLEYHIEVHGNQWVIKVR [N23C], for which the “folding stability dG” value was 1.79 kcal/mol.
